For one molecule, Ki results are on record in US6989362 (ROCKEFELLER UNIVERSITY, dated 2006).

The target of the assay is purified catalytic subunit of cAMP-dependent protein kinase (PKA). Briefly: kinetic analysis of PKA phosphorylation of ARPP-21 at 0-15 uM phospho-Thr75 DARPP-32; Lineweaver-Burk and secondary plot, competitive inhibition.

B1: phospho-Thr75 DARPP-32 (other)
chain: MDPKDRKKIQFSVPAPPSQLDPRQVEMIRRRRPTPAMLFRLSEHSSPEEEASPHQRASGEGHHLKSKRPNPCAYTPPSLKAVQRIAESHLQSISNLNENQASEEEDELGELRELGYPREEDEEEEEDDEEEEEEEDSQAEVLKVIRQSAGQKTTRGLGLEGPWERPPPLDESERDGGSEDQVEDPALSEPGEEPQRPSPSEPGR
The Ki is the dissociation constant of the complex between target and ligand, obtained from inhibition or displacement. High values mean a looser hold on the target, low ones a stronger hold on the target. B1: the Ki came to 2.7 µM. This lies in the single-digit micromolar range.
